In this series the target is MBP-CBF1 (Arabidopsis thaliana, UniProt P93835 1-213). As to the kind of experiment: EMSA; NADPH, Trx reductase, Trx-h2 (reduced CBF1); EMSA kit (Thermo Fisher), poly(dI-dC) binding buffer, NADPH/Trx reductase/Trx-h2 system, 6% polyacrylamide gel; proteins dialyzed in 20 mM HEPES-NaOH pH 8.0; salt and temperature not stated. The following applies: protein: recombinant; tags: MBP (N-terminal, pMAL vector); blunt. On the technique in general: Mobility shift assays separate free from complexed probe on a gel.

The values that follow come from paper PMC8389195, “Demyristoylation of the Cytoplasmic Redox Protein Trx-h2 Is Critical for Inducing a Rapid Cold Stress Response in Plants”.

MBP-CBF1, sequence (P93835 whole entry): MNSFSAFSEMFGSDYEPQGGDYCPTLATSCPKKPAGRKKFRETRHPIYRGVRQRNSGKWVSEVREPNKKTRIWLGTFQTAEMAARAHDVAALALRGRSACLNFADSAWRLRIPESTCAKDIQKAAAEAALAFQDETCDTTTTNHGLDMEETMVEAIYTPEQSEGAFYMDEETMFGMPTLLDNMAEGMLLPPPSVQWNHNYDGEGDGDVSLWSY

B1: COR15a promoter CRT/DRE probe (dsDNA)
DNA 1: ATTTCATGGCCGACCTGCTTTTT
DNA 2: AAAAAGCAGGTCGGCCATGAAAT
As to B1, the binding result is “binds”.
